13 molecules from patent publication US20240317858A1 (Adimab, published 2024) can be followed below.

As usually defined, the Kd is the constant that tells how readily two partners part at equilibrium.

Positions count from the first letter of the chain named.

The labels stand for the following.
B1: Antibody No. A005 (ADI-26921) Fab (Fab, V domains shown)
VH: QVQLVQSGAEVKKPGASVKVSCKASGFNIKDYYMHWVRQAPGQRLEWMGWIDLEEGNTIYDAKFQGRVTITRDTSASTAYMELSSLRSEDTAVYYCARDAYGRYFYDVWGQGTLVTVSS
VL: DIVMTQSPDSLAVSLGERATINCKSSQSLLNARTGKNYLAWYQQKPGQPPKLLIYWASTRESGVPDRFSGSGSGTDFTLTISSLQAEDVAVYYCKQSYSLRTFGGGTKVEIK
notes: Fab by papain digestion of the IgG1
B2: Antibody No. V010 (ADI-70327) Fab (Fab, V domains shown)
VH: B1 VH with N28D, M48I, D52E, E55N, G56D, N57D, I59V
VL: B1 VL with T5S, E61S, K95V, S99F, L100R
notes: as for B1
B3: Antibody No. V018 (ADI-76361) Fab (Fab, V domains shown)
VH: B1 VH with N28D
VL: B1 VL
notes: as for B1
B4: Antibody No. V014 (ADI-76357) Fab (Fab, V domains shown)
VH: B1 VH with N28D, E55N, G56A, A100Q
VL: B1 VL with L100R
notes: as for B1
B5: Antibody No. V009 (ADI-70326) Fab (Fab, V domains shown)
VH: B1 VH with N28D, M48I, D52E, E55N, G56A, N57D, I59V
VL: B1 VL with T5S, E61S, K95V, S99F, L100R
notes: as for B1
B6: Antibody No. V015 (ADI-76358) Fab (Fab, V domains shown)
VH: B1 VH with E55N, G56A, N57D, A100Q
VL: B1 VL with L100R
notes: as for B1
B7: Antibody No. V016 (ADI-76359) Fab (Fab, V domains shown)
VH: B1 VH with N28D, E55N, G56A, A97G
VL: B1 VL
notes: as for B1
B8: Antibody No. V002 (ADI-67445) Fab (Fab, V domains shown)
VH: B1 VH with E55N, G56A, N57E, G66D, V108E
VL: B1 VL with L100R
notes: as for B1
B9: Antibody No. V006 (ADI-67449) Fab (Fab, V domains shown)
VH: B1 VH with I29D, E55N, G56A, N57E, G66D
VL: B1 VL with L100R
notes: as for B1
B10: Antibody No. V008 (ADI-70325) Fab (Fab, V domains shown)
VH: B1 VH with M48I, E55N, G56A, N57E, I59V, G66D
VL: B1 VL with T5S, E61S, K95V, S99F, L100R
notes: as for B1
B11: Antibody No. V012 (ADI-70329) Fab (Fab, V domains shown)
VH: B1 VH with I29D, M48I, E55N, G56A, N57E, I59V, G66D
VL: B1 VL with T5S, E61S, K95V, S99F, L100R
notes: as for B1
B12: Antibody No. V005 (ADI-67448) Fab (Fab, V domains shown)
VH: B1 VH with K30D, E55N, G56D
VL: B1 VL with L100R
notes: Fab by papain digestion of the IgG1; VH as printed is identical to that of V004
B13: Antibody No. V003 (ADI-67446) Fab (Fab, V domains shown)
VH: B1 VH with N28D, D52E, E55N, G56A, N57D
VL: B1 VL with L100R
notes: as for B1

T2 sequence (Q95LI5 22-117, stated change not applied, form in doubt, chain 1 of 2): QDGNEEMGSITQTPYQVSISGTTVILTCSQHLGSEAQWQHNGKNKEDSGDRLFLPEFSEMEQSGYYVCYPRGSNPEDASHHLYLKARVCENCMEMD
T2 sequence (Q95LI8 22-100, stated change not applied, form in doubt, chain 2 of 2): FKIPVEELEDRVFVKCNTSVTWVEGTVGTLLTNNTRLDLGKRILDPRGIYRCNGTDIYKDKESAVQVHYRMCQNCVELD
T1 sequence (P07766 22-126, stated change not applied, form in doubt, chain 1 of 2): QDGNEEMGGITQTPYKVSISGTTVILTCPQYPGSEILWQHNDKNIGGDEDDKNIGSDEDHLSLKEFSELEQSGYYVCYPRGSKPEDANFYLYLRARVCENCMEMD
T1 sequence (P04234 22-100, stated change not applied, form in doubt, chain 2 of 2): as the sequence (Q95LI8 22-100, stated change not applied, form in doubt, chain 2 of 2) above, with V5I, K15N, V20I, T32S, N33D, N34I, A64T, N74S counted along it

The first assay addresses T1, Human CD3εδ Fc heterodimer (Hu CD3ε Fc + CD3δ Fc-HIS) (human, UniProt P07766 22-126; P04234 22-100).
T1 construct: range 22-126;range 22-100; Made in HEK 293 cells with a heterologous signal peptide; also called Hu CD3εδ-Fc; CD3εδ Fc-HIS heterodimer; not shown: Fc; Fc followed by HIS tag
The experiment in a line: BLI (Octet), Fab monovalent, pH 6.0. The protocol:
(§1) ForteBio KD measurements (Biolayer interferometry; BLI). ForteBio affinity measurements were performed generally as previously described (Estep, P., et al., High throughput solution-based measurement of antibody-antigen affinity and epitope binning. MAbs, 2013. 5(2): p. 270-8.). Briefly, ForteBio affinity measurements were performed by loading IgGs or CD3εδ Fe-HIS heterodimer onto AHC sensors. Sensors were equilibrated off-line in assay buffer for 30 min and then monitored on-line for 60 seconds for baseline establishment. Sensors with loaded IgGs were exposed to 100 nM antigen (e.g., CD3) for 3 min, afterwards they were transferred to assay buffer for 10 min for off-rate measurement. Sensors loaded with CD3εδ Fe-HIS heterodimer were exposed to 100 nM anti-CD3 Fab for 3 min, afterwards they were transferred to assay buffer for 3 min or 10 min for off-rate measurement. Kinetics were analyzed using the 1:1 binding model. For measuring binding at different pHs, measurements were performed at pre-determined pHs (e.g., pH 7.4 and pH 6.0).
(§2) Anti-CD3 antibodies A001-A005, V002, V004, V007, V009, V010, V013, and V014-V019 were produced as IgG1s in CHO cells, and Fab fragments were generated from IgG1 antibodies by papain digestion and purification as described in Example 2. Human, cynomolgus, rhesus, and mouse CD3εδ Fc heterodimers were produced, and monovalent binding affinity and avidity at pH 7.4 and pH 6.0 were measured using the Octet® HTX instrument (ForteBio) as described in Example 2.
For orientation: Biolayer interferometry detects binding as a change in optical thickness at a sensor tip.
For B1, the Kd stood at 35 nM.
Same read-out and setting: to B2 belongs 2 nM; to B3, 33 nM.
Same read-out and setting: to B4 belongs 24 nM.
Consider B5, for which the Kd was found to be 1.2 nM.
In the case of B6, the Kd came to 34 nM.
On the same count and under the same terms, under B7 stands 37 nM; under B8, 8.8 nM.

The next assay addresses T2, Cynomolgus CD3εδ Fc heterodimer (Cy CD3ε Fc + CD3δ Fc-HIS) (cynomolgus, UniProt Q95LI5 22-117; Q95LI8 22-100).
T2 construct: range 22-117;range 22-100; Made in HEK 293 cells with a heterologous signal peptide; also called Cy CD3εδ-Fc; cyno CD3εδ Fc; not shown: Fc; Fc followed by HIS tag
As to the kind of experiment: BLI (Octet), Fab monovalent, pH 6.0. As to the method:
as §1, §2
Consider B1, for which the Kd was 45 nM.
On the same count and under the same terms, to B2 belongs 1.9 nM; to B3, 17 nM; to B4, 21 nM.
On the same count and under the same terms, under B5 stands 1.6 nM; under B6, 29 nM; under B7, 49 nM.
As to B8, the Kd stood at 8 nM.

The next assay deals with T1, Human CD3εδ Fc heterodimer (Hu CD3ε Fc …). The experiment in a line: BLI (Octet), Fab monovalent, pH 7.4. As to the method:
as §1, §2
For the molecule B1, the Kd was 78 nM.
Still for that read-out and setting: under B2 stands 4.1 nM; under B3, 37 nM; under B4, 44 nM.
The same measure, in the same setting: under B5 stands 1.6 nM; under B6, 56 nM.
Still for that read-out and setting: under B7 stands 77 nM.
Turning to B8, the Kd came to 13 nM.

The target of the next assay is T2, Cynomolgus CD3εδ Fc heterodimer (Cy …). As to the kind of experiment: BLI (Octet), Fab monovalent, pH 7.4. The protocol:
as §1, §2
Take B1: the Kd turned out to be 39 nM.
In the case of B2, the Kd was determined as 3.4 nM.
Same read-out and setting: to B3 belongs 28 nM; to B4, 39 nM.
Still for that read-out and setting: under B5 stands 1.9 nM; under B6, 58 nM.
On the same count and under the same terms, to B7 belongs 75 nM; to B8, 12 nM.

In another assay the target is T3, Rhesus CD3εδ Fc heterodimer (rhesus).
T3 construct: extracellular domain; also called Rh CD3εδ-Fc
As to the kind of experiment: BLI (Octet), Fab monovalent, pH 7.4. The protocol:
as §1, §2
In the case of B1, binding was characterised by a dissociation constant (Kd) of 36 nM.
Still for that read-out and setting: to B2 belongs 4.4 nM.
As for B3, binding was put at a Kd of 29 nM.
B4: the affinity, expressed as Kd, was 39 nM.
Take B5: binding was put at a Kd of 1.8 nM.
On to B6, for which the Kd came to 53 nM.
For B7, the Kd was 87 nM.
Still for that read-out and setting: to B8 belongs 15 nM.

The target in another assay is T1, Human CD3εδ Fc heterodimer (Hu CD3ε Fc …). The experiment in a line: BLI (Octet), CD3εδ Fc on AHC sensor, 100 nM Fab. As to the method: (§3) Affinity of the anti-CD3 antibodies for CD3 was determined by measuring their kinetic constants (kₒₙ, koff, KD) on ForteBio Octet®. ForteBio affinity measurements were performed generally as previously described (Estep et al., MAbs. 2013 5(2):270-8). […] Sensors were equilibrated off-line in assay buffer for 30 minutes and then monitored on-line for 60 seconds for baseline establishment. For monovalent binding measurement, sensors with loaded CD3εδ Fc were exposed to 100 nM anti-CD3 Fab, as further described in Example 2 below] for 3 minutes, afterwards they were transferred to assay buffer for 3 minutes for off-rate measurement. Kinetics data were fit using a 1:1 binding model in the data analysis software provided by ForteBio.
For the molecule B9, the Kd is 7.97 nM.
On to B10, for which the Kd was 0.95 nM.
As to B2, the Kd was 1.92 nM.
The same measure, in the same setting: under B5 stands 0.81 nM.
On the same count and under the same terms, to B11 belongs 1.65 nM.
The same measure, in the same setting: to B12 belongs 6.98 nM.
Consider B13, for which the Kd is 4.57 nM.
Still for that read-out and setting: to B8 belongs 7.84 nM.

For the next assay, the target named is T2, Cynomolgus CD3εδ Fc heterodimer (Cy …). The experiment in a line: BLI (Octet), CD3εδ Fc on AHC sensor, 100 nM Fab. As to the method: as §3
In the case of B9, the Kd came to 8.15 nM.
As for B10, the Kd is 0.91 nM.
The same measure, in the same setting: under B2 stands 1.91 nM; under B5, 0.81 nM; under B11, 1.64 nM.
The same measure, in the same setting: to B12 belongs 6.06 nM; to B13, 4.18 nM; to B8, 7.33 nM.

A further assay deals with T1, Human CD3εδ Fc heterodimer (Hu CD3ε Fc …). The experiment in a line: SPR (Biacore), Fab over immobilized CD3εδ Fc, pH 6.0. The protocol: (§4) Anti-CD3 antibodies A001-A005, V002, V004, V007, V009, V010, V013, and V014-V019 were produced in CHO cells, and Fab fragments were generated from IgG1 antibodies by papain digestion and purification as described in Example 2. Monovalent binding affinity at pH 7.4 and pH 6.0 was measured via surface plasmon resonance (SPR). Briefly, human or cynomolgus CD3εδ Fe heterodimer produced as described in Example 2 was immobilized to a CM5 sensor chip in a Biacore® X100 (Cytiva, previously GE Healthcare Life Sciences) to a response level of ˜500 RUs. Fabs were then injected at 3-fold increasing concentrations, ranging from 0.74-180 nM. The sensor chip was doubly regenerated between cycles using 0.35 M EDTA and 0.1 M NaOH. The resulting data were double reference subtracted and fit to a 1:1 binding model using Biacore® Evaluation Software.
A general note: SPR reads the build-up and loss of mass on a sensor chip optically.
For the molecule B1, the dissociation constant (Kd) turned out to be 20 nM.
On the same count and under the same terms, under B2 stands 3.1 nM; under B3, 31 nM; under B4, 12 nM.
Still for that read-out and setting: to B5 belongs 1.1 nM.
On to B6, for which the Kd was 14 nM.
On the same count and under the same terms, to B7 belongs 22 nM; to B8, 4.2 nM.

A further assay concerns the target T2, Cynomolgus CD3εδ Fc heterodimer (Cy …). The assay is described as above. As to the method: as §4
B1: the Kd was found to be 24 nM.
On the same count and under the same terms, to B2 belongs 0.82 nM; to B3, 29 nM; to B4, 12 nM.
For the molecule B5, the Kd was determined as 0.24 nM.
The same measure, in the same setting: to B6 belongs 11 nM; to B7, 23 nM.
Same read-out and setting: under B8 stands 3.3 nM.

For the next assay, the target named is T1, Human CD3εδ Fc heterodimer (Hu CD3ε Fc …). The experiment in a line: SPR (Biacore), Fab over immobilized CD3εδ Fc, pH 7.4. The protocol: as §4
On to B1, for which the Kd stood at 24 nM.
Same read-out and setting: under B2 stands 0.39 nM.
Turning to B3, the Kd worked out at 42 nM.
On the same count and under the same terms, under B4 stands 11 nM; under B5, 0.14 nM; under B6, 18 nM.
The same measure, in the same setting: under B7 stands 14 nM.

A further assay deals with T2, Cynomolgus CD3εδ Fc heterodimer (Cy …). The assay is described as above. The protocol: as §4
Take B1: the Kd came out at 33 nM.
The same measure, in the same setting: under B2 stands 0.45 nM; under B3, 36 nM.
Still for that read-out and setting: to B4 belongs 11 nM.
The same measure, in the same setting: under B5 stands 0.15 nM.
For B6, the Kd is 19 nM.
Same read-out and setting: to B7 belongs 16 nM.
